Measured values taken from patent US20260183363A1, “INHIBITION OF LUTEINIZING HORMONE (LH) ACTION AS TREATMENT OF PERIMENOPAUSAL AND POSTMENOPAUSAL SYMPTOMS AND COMPLICATIONS” (RIGSHOSPITALET, priority 2022, published 2026).
Non-standard residues stand in square brackets, D forms with d. Residues, ends and D or L forms follow the SMILES beside them. dPhe(4-Cl) = N[C@H](Cc1ccc(Cl)cc1)C(=O)O; d2Nal = N[C@H](Cc1ccc2ccccc2c1)C(=O)O; dCit = NC(=O)NCCC[C@@H](N)C(=O)O; d3Pal = N[C@H](Cc1cccnc1)C(=O)O

Legend:
[1] = system: bilateral ovariectomized female C57BL/6JRj mice; assay: Menopausal mouse model: temperature and tissue weights; format: in vivo; conditions: for Body weight compared with vehicle: after 10 days treatment
Experimental: Bilateral ovariectomized female C57BL/6JRj mice, 8 weeks of age, were included in the study and administered with IgG2b (control) or 1 of 3 test articles (LH-β ab, LHCGR ab or GnRH antagonist) either at study day 1, or once a day for 9 days. The control/vehicle treatment was a non-specific antibody (IgG2b). The route of administration was through intraperitoneal (i.p.) injection. The study had four groups in total (Table 3); group 1 (female, n=6) was treated i.p. with IgG2b (control) on study day 1 and day 5, group 2 (female, n=3) was treated i.p. with LH-β ab at study day 1, group 3 (female, n=3) was treated i.p. with LHCGR ab at study day 1, group 4 (female, n=3) was treated i.p. with GnRH antagonist once a day (q.d.) for 9 days. Blood for preparation of serum was collected prior to dosing on study day 1 and at termination on study day 10. Core temperature and skin temperature were determined in female mice pre-dose on study day 1, at study day 5 and at termination on study day 10.
Seventeen (17) ovariectomized C57BL/6JRj female mice 8 weeks of age were supplied by Janvier Labs France. The ovaries from the female mice were surgically removed by the supplier. The mice were caged in European IVC cages type IIL. Temperature was 20° C. to 24° C. and the light cycle 12-hour dark and 12-hour light (lights on 06.00). The diet was Altromin 1324, produced by Altromin, Im Seelenkamp 20, 32791 Lage, Germany.
Temperature measurements were done using rectal thermometer (thermometer BIO-TK8851 combined with rectal probe BIO-BRET-3, both from BIOSEB Lab instruments) for core temperature and infrared (153-IRB Infrared Thermometer, BIOSEB Lab instruments) for skin temperature. The core temperature was recorded rectally, and skin temperature was recorded at the tail and the head between the ears at the same time of the day (morning). Immediately after termination, tissues (fat and thyroid mass) were dissected, weighed, placed in Eppendorf tubes and snap frozen by emerging the tube in liquid nitrogen or placed in histology jar and fixed in 4% neutral buffered formalin.

[2] = system: bilateral ovariectomized female C57BL/6JRj mice; assay: Calcium excretion and kidney weight in menopause mouse model; format: in vivo; conditions: for kidney weight compared with vehicle (IgG2b): female mice without ovaries; for kidney weight compared with vehicle (IgG2b) / calcium excretion: day 10; for calcium excretion: female mouse model
Experimental: (§1) Bilateral ovariectomized female C57BL/6JRj mice, 8 weeks of age, were included in the study and administered with IgG2b (control) or 1 of 3 test articles (LH-β ab, LHCGR ab or GnRH antagonist) either at study day 1, study day 1 and 5 or once a day for 9 days. The route of administration was through intraperitoneal (i.p.) injection. The study included be 6 groups in total (Table 6); group 1 (female, n=6) was treated i.p. with IgG2b (control) on study day 1 and day 5, group 2 (female, n=3) was treated i.p. with LH-β ab at study day 1, group 3 (female, n=1) was treated i.p. with LH-β AB on study day 1 and day 5, Group 4 (female, n=3) was treated i.p. with LHCGR ab at study day 1, group 5 (female, n=1) was treated i.p. with LHCGR ab on study day 1 and day 5, group 6 (female, n=3) was treated i.p. with GnRH antagonist once a day (q.d.) for 9 days. Blood for preparation of serum was collected prior to dosing on study day 1 and at termination on study day 10. Urine and kidneys were collected on day 10.
Seventeen (17) bilateral ovariectomized C57BL/6JRj female mice 8 weeks of age, were supplied by Janvier Labs France. The ovaries from the female mice were surgically removed by the supplier (see also Table 6). Fourteen (14) C57BL/6JRj male mice were also stratified into the different groups except that no male mice were treated with GnRH antagonist, and the male mice were therefore only stratified into groups 1-5 (see also Table 7).

human kidney tissue = assay: Ex vivo culture of human kidney tissue, qRT-PCR gene expression; format: cell-based
Experimental: Human kidney tissues from 5 adults (4 men, 1 […]) were cultured. All donors underwent partial nephrectomy due to suspected malignant kidney tumors and a pathologist removed tissues outside the malignant area. Kidney specimens were dissected in small pieces 1 mm^3 and cultured for either 3 or 24 hours in a hanging drop ex vivo model.
Gene expression profiling was done by qRT-PCR analyzing levels of calcium transporters SLC12A-1, SLC12A-2, TRPV5 as well as calcium-sensing receptor (CASR). The inventors also measured kidney expression of exon 2-4 and 11 of LHCGR using a primer-sequence previously validated by sequencing of the product from both serum and testis tissue. As calcium transporters are differentially expressed in the different parts of the nephron, all samples were standardized according to the expression of Uromodulin (UMOD), a protein located in the thick ascending limb of the loop of Henle and subsequently to MAP3K7 expressed in the distal convoluted tubules and in addition to being standardized to the housekeeping gene, RPS20. Ethical committee approval: H-17004362. All samples were analyzed with ANOVA with control/baseline as reference value and every p-value presented was adjusted for multiple comparisons with Dunnett's post hoc test.

C57BL/6JRj male mice = assay: Calcium excretion and kidney weight in normal male mice; format: in vivo
Experimental: as §1
Seventeen (17) bilateral ovariectomized C57BL/6JRj female mice 8 weeks of age, were supplied by Janvier Labs France. The ovaries from the female mice were surgically removed by the supplier (see also Table 6). […]

CC(=O)N[C@H](Cc1ccc2ccccc2c1)C(=O)N[C@H](Cc1ccc(Cl)cc1)C(=O)N[C@H](Cc1cccnc1)C(=O)N[C@@H](CO)C(=O)N[C@@H](Cc1ccc(O)cc1)C(=O)N[C@H](CCCNC(N)=O)C(=O)N[C@@H](CC(C)C)C(=O)N[C@@H](CCCNC(=N)N)C(=O)N1CCC[C@H]1C(=O)N[C@H](C)C(N)=O [GnRH antagonist, Cetrorelix, reference compound] (Ac-[d2Nal][dPhe(4-Cl)][d3Pal]SY[dCit]LRP[dA]-NH2)
visceral fat mass ([1]; 10 days): suppressed | Body weight compared with vehicle [1]: lower | kidney weight compared with vehicle (IgG2b) [2]: slightly lower | calcium excretion [2]: suppressed calcium excretion

C[C@]12CC[C@H]3[C@@H](CCC4=CC(=O)CC[C@@]43C)[C@@H]1CC[C@@H]2O [testosterone, reference compound]
expression of LHCGR exon 11 (human kidney tissue; three hours ex vivo culture, 5 out of 5 below detection vs vehicle 3 out of 10): suppressed

B1: PTH: parathyroid hormone, added to kidney tissue culture media at 0.01 pg/mL (protein, UniProt P01270 32-115, looked up)
Parathyroid hormone: SVSEIQLMHNLGKHLNSMERVEWLRKKLQDVHNFVALGAPLAPRDAGSQRPRKKEDNVLVESHEKSLGEADKADVNVLTKAKSQ
modifications: Parathyroid hormone
notes: parathyroid hormone, added to kidney tissue culture media at 0.01 pg/mL
TRPV5 expression (human kidney tissue; after 24 hours): significantly increased

B2: LH-β ab: Monoclonal mouse antibody (IgG2B; Kappa) targeting mouse LH beta; variable light chain SEQ ID NO: 5, heavy chain SEQ ID NO: 9 (antibody)
heavy: MEWRIFLFILSGTAGVHSQVQLQQSGPELVKPGTSLKLSCKASGYTFTDYVLTWVKQRTGQGLEWIGEIYPGSGSTSYNEKFRGKATLTADKSSNTAYMQLSSLTSEDSAVYFCAHLYYADYDFSYWGQGTLVTVSAAKTTPPSVYPLAPGCGDTTGSSVTLGCLVKGYFPESVTVTWNSGSLSSSVHTFPALLQSGLYTMSSSVTVPSSTWPSQTVTCSVAHPASSTTVDKKLE
light: MKLPVRLLVLMFWIPVSSSDVLMTQIPLSLVVSLGDQASISCRSSQNIVQSNGNTYLEWYLQKPGQSPKLLIYKVSNRFSGVPDRFSGSGSGTDFTLKISRVEAEDLGVYYCFQGSHVPLTFGAGTKLELKRADAAPTVSIFPPSSEQLTSGGASVVCFLNNFYPKDINVKWKIDGSERQNGVLNSWTDQDSKDSTYSMSST
subcutaneous fat mass ([1]; 10 days): suppressed | thyroid mass ([1]; 10 days): lowered | visceral fat mass ([1]; 10 days): suppressed | Body weight compared with vehicle [1]: lower | increase of core temperature relative to baseline ([1]; day 5 and 10): 8% | change in body weight versus vehicle ([1]; most pronounced in the first 5 days): effective in suppressing the effect of menopause (gonadectomy) on weight induction | kidney weight compared with vehicle (IgG2b) [2]: slightly lower | calcium excretion [2]: suppressed calcium excretion | calcium excretion suppressed ([2]; high dosage, female mice): 70% | calcium excretion (C57BL/6JRj male mice; all concentrations): reduced calcium excretion | kidney weight compared with vehicle (IgG2b) (C57BL/6JRj male mice; day 10): slightly lower
